How the values were obtained:
[1] = molecular target: GST-Tax_(CACA) (HTLV-1 Tax with C23 and C29 changed to alanine, N-terminal GST fusion) (HTLV-1) (UniProt P03409); assay: BLI; BLItz; GST-Tax covalently bound to an AR2G sensor; UPF1 His-HD proteins in running buffer (300 mM NaCl, 20 mM phosphate, 0.02% Tween 20, 0.1% albumin); 250 s association, 60 s dissociation
[2] = tested on: T1, UPF1-HD (Homo sapiens), Q92900-2; assay: BLI; details: BLI: 20 mM HEPES pH 7.5, 150 mM K acetate, 2 mM Mg acetate, 1 mM DTT, 6.3% glycerol, 0.1% NP-40; EMSA: 20 mM MES pH 6.0, 150 mM K acetate, 2 mM DTT, 0.2 ug/ul …
T1 sequence: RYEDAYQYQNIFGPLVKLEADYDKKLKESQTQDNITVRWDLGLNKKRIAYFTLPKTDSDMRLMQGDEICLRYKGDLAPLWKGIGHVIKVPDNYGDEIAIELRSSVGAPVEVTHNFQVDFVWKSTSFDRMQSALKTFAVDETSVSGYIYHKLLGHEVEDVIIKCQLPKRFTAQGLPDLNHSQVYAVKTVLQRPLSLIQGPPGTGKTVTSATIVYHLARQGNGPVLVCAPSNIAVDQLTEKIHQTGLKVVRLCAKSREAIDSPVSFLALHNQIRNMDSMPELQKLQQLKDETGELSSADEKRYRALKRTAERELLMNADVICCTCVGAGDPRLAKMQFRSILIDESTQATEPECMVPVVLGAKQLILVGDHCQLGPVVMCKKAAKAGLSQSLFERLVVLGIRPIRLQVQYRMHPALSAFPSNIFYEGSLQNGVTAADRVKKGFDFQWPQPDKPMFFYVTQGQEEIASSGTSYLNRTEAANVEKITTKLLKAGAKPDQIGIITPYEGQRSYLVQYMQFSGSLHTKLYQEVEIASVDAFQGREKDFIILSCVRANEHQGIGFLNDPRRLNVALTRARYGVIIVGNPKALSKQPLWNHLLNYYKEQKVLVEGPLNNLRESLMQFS

**Q.** Which fold change of KD against WT [1] does the source give for “UPF1-HD_(R843C), histidine-tagged (from UniProt Q92900-2 295-914) (domain or fragment)” here?
**A.** Its fold change of KD against WT is 3.2 times.

**Q.** With 5'-biotin 30-mer ssDNA (BLI) as the substance, how does the Kd [2] read?
**A.** Its Kd is 8.25 nM.
